Square brackets hold non-standard residues; d marks the D form. Ends that are not written are not given here. * marks the point of attachment. Biotin = O=C1N[C@H]2[C@H](CS[C@H]2CCCCC(=O)*)N1; pS = N[C@@H](COP(=O)(O)O)C(=O)O
T1: endogenous BACH1 (full-length) of U2OS cells (Homo sapiens (Human), UniProt Q9BX63 1-1249)
T1 construct: Endogenous full-length protein in U2OS cell lysates, detected with a rabbit anti-BACH1 antibody; The phosphorylation state in the lysate was not measured; also called full-length BACH1; wild-type BACH1
T1 sequence: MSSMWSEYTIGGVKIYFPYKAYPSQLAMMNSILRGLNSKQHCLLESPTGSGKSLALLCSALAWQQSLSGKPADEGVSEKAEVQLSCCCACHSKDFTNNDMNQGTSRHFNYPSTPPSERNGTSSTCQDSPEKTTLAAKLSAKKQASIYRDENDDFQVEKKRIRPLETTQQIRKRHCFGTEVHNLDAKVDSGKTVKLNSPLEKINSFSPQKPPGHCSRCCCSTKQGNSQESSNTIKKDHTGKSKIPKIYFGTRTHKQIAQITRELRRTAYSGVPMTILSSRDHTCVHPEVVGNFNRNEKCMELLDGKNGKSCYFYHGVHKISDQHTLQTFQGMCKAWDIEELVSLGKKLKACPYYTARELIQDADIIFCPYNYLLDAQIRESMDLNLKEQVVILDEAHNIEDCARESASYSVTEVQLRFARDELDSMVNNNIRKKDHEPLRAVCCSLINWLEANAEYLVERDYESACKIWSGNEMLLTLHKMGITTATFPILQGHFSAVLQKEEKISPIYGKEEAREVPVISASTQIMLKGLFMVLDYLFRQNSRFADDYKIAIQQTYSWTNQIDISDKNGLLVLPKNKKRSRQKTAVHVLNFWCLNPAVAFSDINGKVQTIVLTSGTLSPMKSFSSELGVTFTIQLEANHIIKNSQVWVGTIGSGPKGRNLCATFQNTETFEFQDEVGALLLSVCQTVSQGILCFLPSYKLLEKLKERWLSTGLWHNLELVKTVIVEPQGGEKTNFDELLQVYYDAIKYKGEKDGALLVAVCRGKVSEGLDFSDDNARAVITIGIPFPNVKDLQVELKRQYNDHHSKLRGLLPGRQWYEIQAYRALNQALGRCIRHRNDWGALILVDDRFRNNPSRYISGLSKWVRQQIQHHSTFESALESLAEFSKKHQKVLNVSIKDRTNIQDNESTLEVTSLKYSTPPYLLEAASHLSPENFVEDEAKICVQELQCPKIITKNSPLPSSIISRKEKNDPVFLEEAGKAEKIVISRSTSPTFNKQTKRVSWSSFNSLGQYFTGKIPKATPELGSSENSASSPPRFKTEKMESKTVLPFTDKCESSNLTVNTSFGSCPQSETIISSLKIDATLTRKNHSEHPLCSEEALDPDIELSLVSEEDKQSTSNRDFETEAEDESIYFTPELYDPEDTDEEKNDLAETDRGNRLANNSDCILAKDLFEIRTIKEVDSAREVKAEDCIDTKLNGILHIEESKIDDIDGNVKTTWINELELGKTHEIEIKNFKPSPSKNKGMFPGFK

B1: myc-tagged BRCA1 tandem BRCT domain construct (residues 1313-1863) M1775R (other, not shown: small tags and cut ends)
chain: QDPFLIGSSKQMRHQSESQGVGLSDKELVSDDEERGTGLEENNQEEQSMDSNLGEAASGCESETSVSEDCSGLSSQSDILTTQQRDTMQHNLIKLQQEMAELEAVLEQHGSQPSNSYPSIISDSSALEDLRNPEQSTSEKAVLTSQKSSEYPISQNPEGLSADKFEVSADSSTSKNKEPGVERSSPSKCPSLDDRWYMHSCSGSLQNRNYPSQEELIKVVDVEEQQLEESGPHDLTETSYLPRQDLEGTPYLESGISLFSDDPESDPSEDRAPESARVGNIPSSTSALKVPQLKVAESAQSPAAAHTTDTAGYNAMEESVSREKPELTASTERVNKRMSMVVSGLTPEEFMLVYKFARKHHITLTNLITEETTHVVMKTDAEFVCERTLKYFLGIAGGKWVVSYFWVTQSIKERKMLNEHDFEVRGDVVNGRNHQGPKRARESQDRKIFRGLEICCYGPFTNRPTDQLEWMVQLCGASVVKELSSFTLGTGVHPIVVVQPDAWTEDNGFHAIGQMCEAPVVTREWVLDSVALYQCQELDTYLIPQIPHSHY
notes: also called M1775R cancer-associated mutant
B2: myc-tagged BRCA1 tandem BRCT domain construct (residues 1313-1863) P1749R (other, not shown: small tags and cut ends)
chain: QDPFLIGSSKQMRHQSESQGVGLSDKELVSDDEERGTGLEENNQEEQSMDSNLGEAASGCESETSVSEDCSGLSSQSDILTTQQRDTMQHNLIKLQQEMAELEAVLEQHGSQPSNSYPSIISDSSALEDLRNPEQSTSEKAVLTSQKSSEYPISQNPEGLSADKFEVSADSSTSKNKEPGVERSSPSKCPSLDDRWYMHSCSGSLQNRNYPSQEELIKVVDVEEQQLEESGPHDLTETSYLPRQDLEGTPYLESGISLFSDDPESDPSEDRAPESARVGNIPSSTSALKVPQLKVAESAQSPAAAHTTDTAGYNAMEESVSREKPELTASTERVNKRMSMVVSGLTPEEFMLVYKFARKHHITLTNLITEETTHVVMKTDAEFVCERTLKYFLGIAGGKWVVSYFWVTQSIKERKMLNEHDFEVRGDVVNGRNHQGRKRARESQDRKIFRGLEICCYGPFTNMPTDQLEWMVQLCGASVVKELSSFTLGTGVHPIVVVQPDAWTEDNGFHAIGQMCEAPVVTREWVLDSVALYQCQELDTYLIPQIPHSHY

What was measured:
[1] = target: T2, myc-tagged BRCA1 tandem BRCT domain construct (residues 1313-1863) mutated at Lys1702 alone (human, UniProt P38398 1313-1863); assay: pull-down of in vitro translated 35S-labelled protein on bead-immobilized peptide
T2 construct: also called Lys1702 mutant; K1702M
Description: (§1) FIG. 3A is a schematic representation of protein-peptide contacts between a BRCA1 tandem BRCT domain and the BACH1 phosphopeptide. Hydrogen bonds, Van der Waals interactions and water molecules are denoted by dashed lines, crescents, and circles respectively. In FIG. 3B, the wild-type and mutant myc-tagged BRCA1 tandem BRCT domain constructs containing the indicated mutations were analysed for binding to a bead-immobilized optimal tandem BRCT domain-interacting phosphopeptide, YDIpSQVFPF, or its non-phosphorylated counterpart. […] In FIG. 3C, U2OS cells transfected with wild-type and mutant myc-tagged BRCA 1 tandem BRCT domain constructs were analysed for association with endogenous BACH1.
(§2) An optimal phosphopeptide for binding the BRCA1 BRCTs was determined by oriented peptide library screening as described previously. This peptide was synthesized in both its phosphorylated and non-phosphorylated form with a biotin group at the N-terminus using N-α-FMOC-protected amino acids and standard BOP/HOBt coupling chemistry. These peptides were conjugated to streptavidin coated beads (Sigma-Aldrich). […] The bead-immobilized peptides (10 μL of beads) were added to 10 μL of the in vitro translated [³⁵S]-labeled protein pool in 150 μL binding buffer (50 mM Tris-HCl (pH7.6), 150 mM NaCl, 0.5% NP-40, 1 mM EDTA, 2 mM DTT, 8 μg/mL pepstatin, 8 μg mL⁻¹ aprotinin, 8 μg mL⁻¹ leupeptin, 800 μM Na3VO4, 25 mM NaF).

[2] = target: myc-tagged BRCA1 tandem BRCT domain construct (residues 1313-1863) G1738E (human, UniProt P38398 1313-1863); assay: as above
Description: as §1, §2

[3] = target: T3, myc-tagged BRCA1 tandem BRCT domain construct (residues 1313-1863) S1655A/K1702M (human, UniProt P38398 1313-1863); assay: as above
T3 construct: also called K1702M/S1655A
Description: as §1, §2

[4] = target: T4, myc-tagged BRCA1 tandem BRCT domain construct (residues 1313-1863) mutated at Ser1655 alone (human, UniProt P38398 1313-1863); assay: as above
T4 construct: also called Ser1655 mutant; S1655A
Description: as §1, §2

[5] = target: B1; assay: as above
Description: as §1, §2

[6] = target: T5, myc-tagged BRCA1 tandem BRCT domain construct (from residue 1313) Y1853X (human, UniProt P38398 1313-1852); assay: as above
T5 construct: Stop at Tyr1853; also called Y1853X (truncates the last 11 residues)
Description: as §1, §2

[7] = target: B2; assay: as above
Description: as §1, §2

[8] = target: T1, endogenous BACH1 (full-length) of U2OS …; assay: co-immunoprecipitation from transfected U2OS cells (anti-myc IP, anti-BACH1 blot)

binding result [1] | binding result [2] | binding result [3] | binding result [4] | binding result [5] | binding result [6] | binding result [7] | binding result [8] | Binder
no binding | no binding | no binding | no binding | no binding | no binding | no binding |  | Biotin-YDI[pS]QVFPF (Found by oriented peptide library screening; Conjugated to streptavidin-coated beads; also called phosphorylated biotinylated peptide) [optimal tandem BRCT domain-interacting phosphopeptide YDIpSQVFPF]
 |  |  |  |  |  |  | no binding | B1
 |  |  |  |  |  |  | no binding | B2
